Experimental data published in the supplement of paper PMC10567573.
± gives the standard deviation.

Assay: protein stability index of a GFP-peptide fusion (GPS, HEK-293T) (PSI 1-6); higher = more stable
[1] = treatment: DMSO, c terminus: a fixed tail appended
[2] = treatment: MLN4924 1 uM, 8 h, c terminus: a fixed tail appended
[3] = treatment: DMSO, c terminus: native
[4] = treatment: MLN4924 1 uM, 8 h, c terminus: native
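Also: 24-mer peptide tiles fused after GFP, lentivirally expressed, FACS-sorted into six equal bins by GFP/DsRed ratio, decoded by Illumina sequencing, PSI is the read-weighted mean bin number.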

Sequence	protein stability index [1]	protein stability index [2]	protein stability index [3]	protein stability index [4]
QPPPPPPPPPMQPTVPSAATSQPT [CCDC6]	5.11 ± 0.16	5.29 ± 0.062		
WGYIRYSGQYRELGGAIDFGAAYV [ATL3]	2.56 ± 0.68	2.53 ± 0.69		
KKKSILMKQLQQQQHSDKTSLQGL [ISL2]	3.86 ± 0.2	4.04 ± 0.27		
FQILKYLFQIDVYDFMNSAFSPIV [MIA2]	2.75 ± 0.038	2.85 ± 1		
SPSKTDGKELAGTMDGEGTLFQTE [PBXIP1]	5.31 ± 0.24	5.44 ± 0.3		
NTKNEISELTRLIQRIRSEIENVK [KRT71]	2.83 ± 0.14	2.78 ± 0.24		
NRIKGCHDHLTLSVSRPEGRSWPS [PDLIM4]	2.87 ± 0.25	3.02 ± 0.18		
ARRKSELPQDPHTKKALEAHCRAD [PPP2R5C]	4.68 ± 0.34	5.17 ± 0.12		
LALMIQSSGNTVLLLILCMQHSFP [TMEM192]	2.9 ± 0.073	3.1 ± 0.48		
MSQGPPTGESSEPEAKVLHTKRLY [SMG5]	4.81 ± 0.24	4.94 ± 0.15		
AGPNGTLFVADAYKGLFEVNPWKR [APMAP]	2.39 ± 0.28	2.72 ± 0.31		
YSPEALASIQNHVRKREAPAPEAE [EFHC1]	4.92 ± 0.19	5.06 ± 0.2		
DPSKLDSGKELKIDIIPNPQERTL [HSP90AB1]	5.15 ± 0.11	5.31 ± 0.078		
RCCGAASYQDWQQNLYFNCSSPGV [TSPAN10]	2.37 ± 0.42	2.33 ± 0.66		
GENSDCHRDSSQAIPITELTKSQV [ZNF8]	4.94 ± 0.12	5.29 ± 0.23		
NCLTGEGEDTRLSASEMKQLIDNI [CIB1]	4.67 ± 0.18	4.74 ± 0.32		
SERDKRPEGYNLKDEEGRLRDPAT [PPP2R2B]	5.6 ± 0.29	5.4 ± 0.18		
MDIGQPKDFLTGMCLFLQSLRQKQ [GMPPB]	2.46 ± 0.11	2.72 ± 0.39		
EGGGTSLHVACELARPECLFLLLG [ANKRD9]	2.03 ± 0.091	2.06 ± 0.67		
RTFLETSTDTAVTNEWEKRLSTSP [EPB41L3]	4.17 ± 0.33	3.98 ± 0.2		
SCSQSHCCSRYLCMGAMSLFLPCL [SPRY1]	2.52 ± 0.44	2.5 ± 0.4		
ATFEKILESELLRGTQYSSLDSLD [PSD2]	2.25 ± 0.23	2.41 ± 0.14		
QNPVLSKLLMADQDSPLDLTVRKS [LCOR]	4.14 ± 0.27	4.25 ± 0.21		

Sequence	protein stability index [1]	protein stability index [2]	protein stability index [3]	protein stability index [4]
VQEMRNKIREQNLQDIKTAGPQSQ [ADD1]	4.98 ± 0.34	5.1 ± 0.1		
ICFKEMLANSWNCLPKHLLHSVNQ [KLHDC2]	2.73 ± 0.43	2.63 ± 0.65		
SAQLQELVCHVMMGNLVMFRKDSV [INTS3]	3.07 ± 0.38	2.83 ± 0.37		
RKPCKLMLQVVKILVVTVQLILFG [MCOLN1]	2.44 ± 0.33	2.47 ± 0.32		
MNAVGSPEGQELQKLGSGAWDNPA [PKD2L1]	4.59 ± 0.2	4.35 ± 0.27		
GKTPVCHQCHKVIRGRYLVALGHA [PDLIM7]	2.1 ± 0.1	2.72 ± 0.33		
LDQPVSAPPSPRDISMEIDSPENM [CCDC6]	5.47 ± 0.2	5.23 ± 0.41		
ESEEEGPWEPPVLPILTWPVLQSR [HDAC6]	4.5 ± 0.17	4.37 ± 0.15		
ARNIGFKVNSKKMLGKYNTPVSYR [ACSBG2]	2.32 ± 0.37	2.55 ± 0.14		
EGVSLTAVLTTHHHWDHARGNPEL [HAGHL]	2.72 ± 0.27	2.87 ± 0.42		
DFKEDLKKFRTKSRTWAGEKSKRE [CDC25A]	4.88 ± 0.52	4.92 ± 0.15		
MSLKCLAARAVRANDINYQDQIPR [FEM1B]	3.49 ± 0.34	3.52 ± 0.17		
NTVVSTYVTTNVSLIPPRSEQLVN [TMEM106C]	3.04 ± 0.3	3.19 ± 0.24		
DWVMWAVNEFSLKGVDFQKFCMNG [ETS1]	3.16 ± 0.39	3.05 ± 0.47		
QKKQKLEQKAAGSASAKRVWNMTA [FATE1]	4.01 ± 0.15	3.93 ± 0.37		
KYEAQNIVNSTEESDDAFDTVTIP [IQUB]	5.27 ± 0.22	5.09 ± 0.45		
LRQFFKQLPSPPFLPAAGTADCR [CEBPD]			1.89 ± 0.67	2.16 ± 0.28
TAVAQAPPAVASSSLFDLSVLKLH [SERTAD1]	3.17 ± 0.061	3.24 ± 0.2		
RAHAEIRKMSLLKFLAKVNGSDPR [MAGEA10]	2.37 ± 0.26	2.57 ± 0.58		
LASIFQLAMWTTALLHQAETLQPS [TMEM175]	3.13 ± 0.29	3.13 ± 0.75		
HRQETVECLKKFNARRKLKGAILT [CAMK2B]	2.79 ± 0.24	2.98 ± 0.29		
EPERQVQHEESTEGEADHSGYAGE [UFD1]	5.61 ± 0.28	5.7 ± 0.24		
RLKFPIDYPYSPPAFRFLTKMWHP [CDC34]	2.49 ± 0.48	2.09 ± 0.15		

Sequence	protein stability index [1]	protein stability index [2]	protein stability index [3]	protein stability index [4]
AARISNKGKFSTDTKGKPTSRTQV [ZC2HC1A]	3.91 ± 0.38	4.19 ± 0.39		
YRCIREARYTMPSSLLAPAKHLIA [PLK2]	2.56 ± 0.54	2.48 ± 0.18		
TKKRKTFDSSRQRAEGTDIPTVKP [ZC2HC1A]	4.86 ± 0.22	4.79 ± 0.2		
TLEALGYKGPLLEEQALTKAAEGG [FAM98B]	4.61 ± 0.23	4.66 ± 0.083		
EKETQIIASIGRHRYIAYMANQEA [IQUB]	3.07 ± 0.32	2.88 ± 0.46		
LVKHWYQNCKKKLGKLPPQYALEL [OAS1]	2.43 ± 0.83	2.51 ± 0.63		
SLDGKAIKVEQATKPSFESGRRGP [RBMX]	4.84 ± 0.4	4.94 ± 0.35		
IYGHVTLMRAQRNYMVQTEDQYIF [PTPRD]	2.61 ± 0.58	2.87 ± 1.1		
VPQALSATTYKHGVLTRKTHADMD [PSD2]	4.47 ± 0.18	4.56 ± 0.12		
LKLALDMEIATYRKLLESEECRMS [KRT71]	2.79 ± 0.46	2.88 ± 0.24		
GNLNIHQRTHTGEKPYGCIDCGKA [ZNF649]	3.96 ± 0.38	4.14 ± 0.4		
LLKHSNIVRLHDSISEEGFHYLVF [CAMK2B]	2.68 ± 0.46	2.42 ± 0.37		
AEEESSGGEEEDEDENIEVVYSKA [EIF5]	5.22 ± 0.17	5.25 ± 0.16		
QIRTVIQYQTVRYDILPLSPVSRN [CTDNEP1]	2.36 ± 0.2	2.26 ± 0.13		
NLSRDVTEALILQLFSQIGPCKNC [TIA1]	2.48 ± 0.42	2.91 ± 0.6		
NDVKHHRWFRSVDWEAVPQRKLKP [PRKX]	3.65 ± 0.19	3.6 ± 0.24		
MAETSLLEAGASAASTAAALENLQ [TRIM39]	4.59 ± 0.32	4.4 ± 0.29		
DSQAPAGSLDLVPGGLTLEEHSLE [SPDEF]	5.36 ± 0.21	5.45 ± 0.33		
ETRPAKRITITESNMKSRYTTEFH [WEE1]	3.49 ± 0.27	3.6 ± 0.071		
GKPLYLIFRNLCQMQEDNSSFSLL [INTS3]	2.37 ± 0.41	2.28 ± 0.38		
EQWDRLLVLYPTSLAIFSEELDGL [PLEKHN1]	2.37 ± 0.3	2.44 ± 0.43		
EDLELKKKIFAQLDSIIDDRVILS [CRYL1]	3.28 ± 0.26	3.01 ± 0.36		
LKKLAEENPDLQEAYIAKQKRLKS [GDAP1]	4.38 ± 0.22	4.6 ± 0.28		

Sequence	protein stability index [1]	protein stability index [2]	protein stability index [3]	protein stability index [4]
PTQVPAAEDYLTWKEWGFTGVQEV [SPAG8]	3.5 ± 0.24	3.59 ± 0.31		
GANKEVQELLERGLLQLDHRGLRC [RSAD1]	3.39 ± 0.12	3.66 ± 0.31		
QTLDVNRDGGLCVNDLAVGLRRLG [SLC25A25]	2.98 ± 0.23	3.18 ± 0.3		
RFVQDLVRALEQEKLQGVECGLR [DAPK3]			2.92 ± 1.3	2.14 ± 0.067
KAFGVGVAYRSLGRFEQLGKTAAS [FSD1]	2.77 ± 0.3	2.69 ± 0.24		
TWAPKNKGGEERKAEGGEEDSLGC [IRX6]	5.5 ± 0.16	5.42 ± 0.18		
EEDENGLPRRRGLRKKKTTKLRLE [NEUROD6]	4.9 ± 0.28	4.94 ± 0.35		
PREQAARFCSEIKSSKYGEGHQAW [SEPHS2]	3.36 ± 0.12	3.52 ± 0.19		
QRPFIRMSWEKEEGKSRHVDFQCV [BTBD10]	2.95 ± 0.24	3.04 ± 0.37		
FRRGEKLRVISDEGGWWKAISLST [SLA]	3.3 ± 1.1	2.13 ± 0.72		
HENETLASLKSEAESLKGKLEEER [GNB5]	5.29 ± 0.33	5.34 ± 0.33		
GSPFGLEEPQWVPDKECRRCMQCD [ZFYVE21]	4.1 ± 0.29	4.07 ± 0.28		
RVRPLARVTSLANLISPVRNGAVR [NET1]	3.12 ± 0.17	3.2 ± 0.41		
LSLGLATVDIQNPDITSSRYRGLP [WAS]	2.96 ± 0.25	3.12 ± 0.22		
GKSFSQNTNLHTHQRTHTGEKPFT [ZNF75A]	4.01 ± 0.28	4.25 ± 0.35		
YEEEFDYETESETESEIESETDFE [GNAS]	5.12 ± 0.24	5.11 ± 0.16		
GDIIRLEHKETSRNLHSHYHEAPM [POMT2]	3.35 ± 0.13	3.57 ± 0.12		
DSNSGCLGDTQFCFRFRQSSGRRV [DENND6A]	3.24 ± 0.35	3.06 ± 0.52		
SDASSHANAAKHTQDSARVNPQDG [EHMT1]	5.27 ± 0.22	5.36 ± 0.21		
CEDQKQIKKPESFSKQIVLRGKSI [NEUROD6]	4.7 ± 0.21	4.61 ± 0.21		
